Measured values: article PMC10501992, “How Pol α-primase is targeted to replisomes to prime eukaryotic DNA replication” (Molecular Cell, 2023)

What was measured:
Experiment in all cases: cryo-EM structure; human replisome: 150 nM CMG on fork DNA (60 nt or 15 nt 5′ flap) with 1.5-fold molar excess of AND-1, TIMELESS-TIPIN, CLASPIN and Pol α-primase; 25 mM HEPES-NaOH pH 7.6, 150 mM NaOAc, 0.5 mM TCEP, 500 μM AMP-PNP, 10 mM Mg(OAc)2, on ice; 10-30% glycerol gradient with glutaraldehyde and BS3 cross-linkers
[1] = target: the molecule itself
[2] = target: T1, POLA1 (human Pol α catalytic subunit) (human, UniProt P09884 1-1462); settings: both partners purified
T1 construct: POLA1, human; modelled residues 1279-1445 and 1448-1458 (CTD); stood in the assay as a subunit of m18; also called POLA1CTD; POLA1_(exo-cat)
T1 sequence: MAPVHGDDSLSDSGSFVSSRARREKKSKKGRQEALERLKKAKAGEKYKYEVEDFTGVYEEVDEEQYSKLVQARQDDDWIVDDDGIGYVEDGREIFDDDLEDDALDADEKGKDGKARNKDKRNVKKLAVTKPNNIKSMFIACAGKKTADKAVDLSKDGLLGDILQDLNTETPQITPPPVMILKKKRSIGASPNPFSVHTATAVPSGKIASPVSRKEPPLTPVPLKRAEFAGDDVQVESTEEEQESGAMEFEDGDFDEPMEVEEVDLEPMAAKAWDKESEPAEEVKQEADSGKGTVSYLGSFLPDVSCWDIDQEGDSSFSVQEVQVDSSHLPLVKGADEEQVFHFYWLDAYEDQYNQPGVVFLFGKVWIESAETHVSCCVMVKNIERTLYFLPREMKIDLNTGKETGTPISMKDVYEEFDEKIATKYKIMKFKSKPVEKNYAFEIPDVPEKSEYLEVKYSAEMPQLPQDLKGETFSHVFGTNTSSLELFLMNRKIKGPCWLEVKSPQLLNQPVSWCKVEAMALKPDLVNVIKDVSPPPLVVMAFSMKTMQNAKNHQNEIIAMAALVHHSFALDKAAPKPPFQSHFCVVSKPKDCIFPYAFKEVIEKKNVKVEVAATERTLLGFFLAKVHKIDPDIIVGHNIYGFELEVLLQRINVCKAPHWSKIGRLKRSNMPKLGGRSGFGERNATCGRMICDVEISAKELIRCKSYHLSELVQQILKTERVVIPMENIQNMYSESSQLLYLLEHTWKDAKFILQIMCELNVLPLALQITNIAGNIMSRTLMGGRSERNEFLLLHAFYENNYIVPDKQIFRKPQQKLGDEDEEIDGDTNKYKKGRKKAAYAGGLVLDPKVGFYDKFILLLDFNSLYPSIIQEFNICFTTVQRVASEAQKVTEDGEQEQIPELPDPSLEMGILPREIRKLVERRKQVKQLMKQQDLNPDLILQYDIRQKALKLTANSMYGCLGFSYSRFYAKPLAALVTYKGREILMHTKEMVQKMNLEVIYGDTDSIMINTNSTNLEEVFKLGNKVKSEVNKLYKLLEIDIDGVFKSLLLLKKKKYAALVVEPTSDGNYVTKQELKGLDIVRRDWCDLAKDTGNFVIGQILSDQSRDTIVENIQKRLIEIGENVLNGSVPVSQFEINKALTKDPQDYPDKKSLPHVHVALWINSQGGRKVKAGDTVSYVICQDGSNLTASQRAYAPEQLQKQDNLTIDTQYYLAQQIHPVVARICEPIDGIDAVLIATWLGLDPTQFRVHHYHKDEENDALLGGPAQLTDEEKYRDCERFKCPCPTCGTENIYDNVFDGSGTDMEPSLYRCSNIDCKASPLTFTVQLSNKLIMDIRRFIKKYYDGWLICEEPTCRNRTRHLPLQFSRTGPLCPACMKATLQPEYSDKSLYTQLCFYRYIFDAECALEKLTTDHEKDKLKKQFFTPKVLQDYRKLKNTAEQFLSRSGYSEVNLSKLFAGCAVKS

[3] = target: T2, human CMG (CDC45-MCM-GINS) replicative helicase (human, UniProt O75419 1-566; P49736 1-904; P25205 1-808; P33991 1-863; P33992 1-734; Q14566 …); settings: both partners purified
T2 construct: CDC45, human; MCM2, human; MCM3, human; MCM4, human; MCM5, human; MCM6, human; MCM7, human; PSF1, subunit of GINS, human; PSF2, subunit of GINS, human; PSF3, subunit of GINS, human; SLD5, subunit of GINS, human; the subunits are named in the methods for the MCM3-4A form, which was made as the wild type; copies: + + + + + + + + + +

binding result [2]: binds | binding result [3]: binds
B1: AND-1 (human) (natural protein)
chain: MPATRKPMRYGHTEGHTEVCFDDSGSFIVTCGSDGDVRIWEDLDDDDPKFINVGEKAYSCALKSGKLVTAVSNNTIQVHTFPEGVPDGILTRFTTNANHVVFNGDGTKIAAGSSDFLVKIVDVMDSSQQKTFRGHDAPVLSLSFDPKDIFLASASCDGSVRVWQISDQTCAISWPLLQKCNDVINAKSICRLAWQPKSGKLLAIPVEKSVKLYRRESWSHQFDLSDNFISQTLNIVTWSPCGQYLAAGSINGLIIVWNVETKDCMERVKHEKGYAICGLAWHPTCGRISYTDAEGNLGLLENVCDPSGKTSSSKVSSRVEKDYNDLFDGDDMSNAGDFLNDNAVEIPSFSKGIINDDEDDEDLMMASGRPRQRSHILEDDENSVDISMLKTGSSLLKEEEEDGQEGSIHNLPLVTSQRPFYDGPMPTPRQKPFQSGSTPLHLTHRFMVWNSIGIIRCYNDEQDNAIDVEFHDTSIHHATHLSNTLNYTIADLSHEAILLACESTDELASKLHCLHFSSWDSSKEWIIDLPQNEDIEAICLGQGWAAAATSALLLRLFTIGGVQKEVFSLAGPVVSMAGHGEQLFIVYHRGTGFDGDQCLGVQLLELGKKKKQILHGDPLPLTRKSYLAWIGFSAEGTPCYVDSEGIVRMLNRGLGNTWTPICNTREHCKGKSDHYWVVGIHENPQQLRCIPCKGSRFPPTLPRPAVAILSFKLPYCQIATEKGQMEEQFWRSVIFHNHLDYLAKNGYEYEESTKNQATKEQQELLMKMLALSCKLEREFRCVELADLMTQNAVNLAIKYASRSRKLILAQKLSELAVEKAAELTATQVEEEEEEEDFRKKLNAGYSNTATEWSQPRFRNQVEEDAEDSGEADDEEKPEIHKPGQNSFSKSTNSSDVSAKSGAVTFSSQGRVNPFKVSASSKEPAMSMNSARSTNILDNMGKSSKKSTALSRTTNNEKSPIIKPLIPKPKPKQASAASYFQKRNSQTNKTEEVKEENLKNVLSETPAICPPQNTENQRPKTGFQMWLEENRSNILSDNPDFSDEADIIKEGMIRFRVLSTEERKVWANKAKGETASEGTEAKKRKRVVDESDETENQEEKAKENLNLSKKQKPLDFSTNQKLSAFAFKQE
notes: AND-1, human (Ctf4 in budding yeast)
stoichiometry N [1]: 3
